To fix the notation:
B1: Cytochrome b5, P00171 (parent)
chain: MAEESSKAVKYYTLEEIQKHNNSKSTWLILHYKVYDLTKFLEEHPGGEEVLREQAGGDATENFEDVGHSTDARELSKTFIIGELHPDDRSKITKPSESIITTIDSNPSWWTNWLIPAISALFVALIYHLYTSEN

Variants of B1 are the subject of the data set. Particulars: Bos taurus, pH 7, Absorbance, phosphate 0.1 M, reversible: yes, structure 1CYO, whole UniProt chain shown.

The text below walks through data of FireProtDB (doi:10.1093/protein/10.5.575).

Take F40H: for the setting “66.2 °C, Thermal”, the “ddG of mutation (higher = less stable)” value came out at 2.82 kcal/mol. Besides, under “Thermal”, the Tm was 54.9 °C; the “change of melting temperature, mutant - wild type (higher = more stable)” value (from here on “change of melting temperature, mutant”) is -11.3 °C; the “unfolding enthalpy (van 't Hoff)” value was found to be 94.7 kcal/mol.

In the case of F40L, for the setting “30 °C, Urea”, the “ddG of mutation (higher = less stable)” value is 1.87 kcal/mol and the “denaturant midpoint (higher = more stable)” value is 4.9 M. For the same variant, where the note is “66.2 °C, Thermal”, the “ddG of mutation (higher = less stable)” value was determined as 1.87 kcal/mol. For the setting “Thermal”, the Tm worked out at 59.1 °C; the “change of melting temperature, mutant” value was -7.1 °C; the “unfolding enthalpy (van 't Hoff)” value is 104 kcal/mol.

In the case of F40Y, for the setting “30 °C, Urea”, the “ddG of mutation (higher = less stable)” value was -1.03 kcal/mol and the “denaturant midpoint (higher = more stable)” value was found to be 8.3 M. Further, under “66.2 °C, Thermal”, the “ddG of mutation (higher = less stable)” value is -0.79 kcal/mol and the “unfolding enthalpy (van 't Hoff)” value was found to be 86.4 kcal/mol. Where the note is “Thermal”, the Tm amounted to 69.6 °C; the “change of melting temperature, mutant” value turned out to be 3.4 °C; the “unfolding enthalpy (van 't Hoff)” value worked out at 86.4 kcal/mol.
